In article PMC8588036, “Molecular Cloning and Identification of NADPH Cytochrome P450 Reductase from Panax ginseng” (Molecules, 2021):

Legend:
[1] = tested on: NC(=O)C1=CN([C@@H]2O[C@H](COP(=O)(O)OP(=O)(O)OC[C@H]3O[C@@H](n4cnc5c(N)ncnc54)[C@H](OP(=O)(O)O)[C@@H]3O)[C@@H](O)[C@H]2O)C=CC1; test: purified protein; details: 100 μmol/L cytochrome c, NADPH 0-400 μmol/L, 50 mmol/L Tris HCl pH 7.4, 0.1 mmol/L EDTA, 25 °C
[2] = tested on: T1, NC(=O)C1=CN([C@@H]2O[C@H](COP(=O)(O)OP(=O)(O)OC[C@H]3O[C@@H](n4cnc5c(N)ncnc54)[C@H](OP(=O)(O)O)[C@@H]3O)[C@@H](O)[C@H]2O)C=CC1; test: cytochrome c reduction, A550; format: biochemical, Panax ginseng; details: 100 μmol/L cytochrome c, NADPH 0-400 μmol/L, 50 mmol/L Tris HCl pH 7.4, 0.1 mmol/L EDTA, 25 °C
T1 construct: pET28a, His-tag, E. coli BL21(DE3), Ni-NTA

Chain of PgCPR2 (Panax ginseng) (chain, as listed by the source): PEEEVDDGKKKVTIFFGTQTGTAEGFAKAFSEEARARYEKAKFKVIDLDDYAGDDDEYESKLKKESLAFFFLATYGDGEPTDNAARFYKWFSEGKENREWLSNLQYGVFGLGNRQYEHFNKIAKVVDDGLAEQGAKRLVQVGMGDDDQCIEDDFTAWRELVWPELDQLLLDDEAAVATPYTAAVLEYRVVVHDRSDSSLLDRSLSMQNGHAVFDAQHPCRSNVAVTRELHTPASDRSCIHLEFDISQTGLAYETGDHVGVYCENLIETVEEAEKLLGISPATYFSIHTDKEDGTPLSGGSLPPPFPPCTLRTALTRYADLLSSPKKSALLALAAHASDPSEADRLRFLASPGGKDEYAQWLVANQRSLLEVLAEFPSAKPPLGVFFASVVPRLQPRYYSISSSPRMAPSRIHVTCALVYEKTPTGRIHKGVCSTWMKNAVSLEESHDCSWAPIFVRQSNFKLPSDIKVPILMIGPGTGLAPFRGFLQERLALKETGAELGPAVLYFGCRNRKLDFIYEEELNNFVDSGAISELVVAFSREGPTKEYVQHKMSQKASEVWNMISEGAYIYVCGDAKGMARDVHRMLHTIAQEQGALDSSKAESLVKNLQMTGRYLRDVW
Chain of PgCPR1 (Panax ginseng) (chain, as listed by the source): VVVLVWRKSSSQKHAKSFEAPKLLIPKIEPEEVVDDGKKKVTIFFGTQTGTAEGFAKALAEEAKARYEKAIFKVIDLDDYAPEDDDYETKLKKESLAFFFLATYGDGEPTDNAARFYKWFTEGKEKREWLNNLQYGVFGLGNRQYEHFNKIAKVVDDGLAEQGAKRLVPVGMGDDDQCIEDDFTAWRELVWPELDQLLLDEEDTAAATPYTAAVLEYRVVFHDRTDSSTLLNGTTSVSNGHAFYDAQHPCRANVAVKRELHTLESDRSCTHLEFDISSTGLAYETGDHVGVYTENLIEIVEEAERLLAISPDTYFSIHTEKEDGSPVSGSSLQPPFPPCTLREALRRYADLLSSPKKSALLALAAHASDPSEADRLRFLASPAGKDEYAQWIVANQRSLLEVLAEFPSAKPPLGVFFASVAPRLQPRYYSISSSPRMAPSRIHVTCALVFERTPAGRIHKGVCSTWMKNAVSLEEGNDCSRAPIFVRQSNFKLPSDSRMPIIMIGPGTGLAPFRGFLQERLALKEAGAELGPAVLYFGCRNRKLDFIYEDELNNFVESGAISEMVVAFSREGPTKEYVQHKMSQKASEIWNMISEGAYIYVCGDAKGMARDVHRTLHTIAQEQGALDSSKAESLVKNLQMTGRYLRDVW

| Substance | Km [1] | kcat [1] | kcat/Km [1] | Km [2] | kcat [2] | kcat/Km [2] |
| --- | --- | --- | --- | --- | --- | --- |
| AtCPR1 (Arabidopsis thaliana) | 84.61 ± 8.548 µM | 2.74 s⁻¹ | 32400 M⁻¹ s⁻¹ |  |  |  |
| PgCPR1 (Panax ginseng) |  |  |  | 62.9 ± 5.807 µM | 3.32 ± 0.0968 s⁻¹ | 52800 M⁻¹ s⁻¹ |
| PgCPR2 (Panax ginseng) |  |  |  | 85.27 ± 6.07 µM | 3.38 ± 0.087 s⁻¹ | 39600 M⁻¹ s⁻¹ |
